# Reference: the supplement of paper PMC10567573
# ± gives the standard deviation.
# Assay: protein stability index of a GFP-peptide fusion (GPS, HEK-293T) (PSI 1-6); higher = more stable
# Details: c terminus: a fixed tail appended
# 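Also: 24-mer peptide tiles fused after GFP, lentivirally expressed, FACS-sorted into six equal bins by GFP/DsRed ratio, decoded by Illumina sequencing, PSI is the read-weighted mean bin number.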
Sequence,protein stability index (treatment: DMSO),"protein stability index (treatment: MLN4924 1 uM, 8 h)"
NEIQCTGNEKSIIDCKFNAESQGC [LOXL2],4.88 ± 0.36,4.79 ± 0.58
FHPIKETVVEEPVDITPYLDQLDE [INTS3],3.98 ± 0.67,4.5 ± 0.44
VLCEAAFPKKLAFAYLEDLHSEFD [SEC22B],2.14 ± 0.28,2.31 ± 0.12
HQEQVEDLTASHDAALLEMENNHT [MTUS2],5.51 ± 0.2,5.4 ± 0.3
TVMMWPLAVYHRLWDRAYVRLKPA [RETREG3],2.34 ± 0.23,2.27 ± 0.15
TVLLVLEDEDPEEMPKSSDFLIHP [PCDHGC5],2.75 ± 0.15,2.91 ± 0.21
TKLLNDEDQVVVNKAAVMVHQLSK [CTNNB1],3.6 ± 0.19,3.57 ± 0.4
SSESSDAGLCMDSPSPMDPHMAEQ [CDC25B],5.675 ± 0.013,5.21 ± 0.2
TQVLEDSEDSFCRRHPGLGKAFPS [TRAF3IP2],4.17 ± 0.35,4.12 ± 0.39
DSGQNAWLSYRLLKASEPGLFAVG [PCDHGA10],2.14 ± 0.09,2.13 ± 0.063
AAAGEQASGAEAEPGPAGPPPPPS [BTBD1],5.446 ± 0.021,5.52 ± 0.19
RTIYHMFIAGLCVFIISTLAIDFI [SOAT2],3.14 ± 0.56,2.96 ± 0.67
YPITLYLEKEREKEISDDEAEEEK [HSP90AB1],5.01 ± 0.39,5.3 ± 0.083
PEKLIWGDQDPLSKIPFKILSGHE [WDR88],3.43 ± 0.85,3.45 ± 0.44
GTQHMFEDDPSVLYVSLHRYDHGT [HDAC6],2.34 ± 0.37,2.5 ± 0.45
DKDKSDDRMARPSGRSGHNTRGTG [CSNK1G3],5.6 ± 0.29,5.43 ± 0.52
SLALGDLIYVVIDLPINVFKLLAG [EDNRA],2.59 ± 1,3.28 ± 0.54
LCAYGFFASLRPSEPFLTPYLLGP [SLC19A2],2.94 ± 0.32,2.9 ± 0.56
KAASLARNLAKRRRTYLGGAAGRS [RSPH3],3.09 ± 0.34,3.56 ± 0.45
KALLYLPIAPEVEDPEENPYGPPP [RBBP5],3.94 ± 0.31,4.07 ± 0.42
PQKRKPQEQLLECNKLCGRGQSRQ [SLC2A12],4.1 ± 0.37,4.4 ± 0.056
TRNSPRGCRLPSISSTTCGRQLEK [SPATS1],3.81 ± 0.26,4 ± 0.18
RFEQEAVAVDSNLRVRELQRKVDG [CCDC89],4.98 ± 0.28,4.9 ± 0.29

Sequence,protein stability index (treatment: DMSO),"protein stability index (treatment: MLN4924 1 uM, 8 h)"
PKDLDPSLCTHLIYAFAGMTNHQL [CHIT1],2.75 ± 0.44,2.46 ± 0.6
LRHSFQKQQREKTRWLNSGRGDEA [ADD1],3.63 ± 0.5,3.92 ± 0.35
MDTSHQPLLPAPPKTPMDGADCGI [LYSMD4],5.04 ± 0.2,5.09 ± 0.33
LIVGLQGMDLNLEAEALAGTGLVL [HDAC6],2.91 ± 0.48,2.6 ± 0.62
PRELFPPLFMAAFDGRHSQTLKAM [PRAME],2.65 ± 0.41,2.69 ± 0.27
MDGRMEAATRGGSHLQAAAQTPPR [SCNN1D],4.92 ± 0.39,4.93 ± 0.061
TSLFMTPLDVVKVRLQSQRPSMAS [SLC25A39],2.69 ± 0.34,3.02 ± 0.19
RDFLLDEANGLLPDDKLTLFCEVS [SPOPL],3.03 ± 0.2,3.08 ± 0.34
SSAIEVIMLRSNESFTMDDMSWTC [VDR],2.6 ± 0.53,2.29 ± 0.38
ITPTKKIELDRTIMPDGTIVTTVT [C2CD2L],2.67 ± 0.25,2.79 ± 0.22
LQSCQAEIIELRRTVNALEIELQA [KRT34],2.15 ± 0.45,2.11 ± 0.29
QQCMLEILDTAGTEQFTAMRDLYM [RAP1B],2.53 ± 0.25,2.6 ± 0.2
HRPSLNSVSLQINCQSVAQMNLLQ [DLC1],2.4 ± 0.4,2.52 ± 0.32
HKKDCAREKPFKCQECGKTFRVSS [ZNF75A],3.45 ± 0.38,3.65 ± 0.41
PVLHPSEERAAPVLSCEAATQTER [FAM189A2],5.47 ± 0.27,5.44 ± 0.13
TSLLDLISIPITGDTLRTFSLVLV [DYNC2LI1],2.76 ± 0.89,2.51 ± 0.57
LELLSAPELKSLAKTFHLVNPNGQ [FAN1],2.74 ± 0.13,2.84 ± 0.095
KLQYQLRNVRERIAKNLVEKGILT [GOLPH3L],2.17 ± 0.16,2.28 ± 0.19
LCMDWCKDKRRIVSSSQDGKVIVW [GNB5],2.17 ± 0.14,2.33 ± 0.16
YFFPVIFSKASDSLQLVFGIELME [MAGEA6],3 ± 0.29,3.02 ± 0.54
YSAEQFCVSRNSHLTSVTSESEQE [CD207],5.23 ± 0.21,5.13 ± 0.32
QVANSAFVERVRKRGFEVVYMTEP [HSP90AB1],2.49 ± 0.4,2.64 ± 0.24
TALHIACYNGQDAVVNELIDYGAN [ANKRD44],2.69 ± 0.27,2.86 ± 0.24

Sequence,protein stability index (treatment: DMSO),"protein stability index (treatment: MLN4924 1 uM, 8 h)"
EEVDTGAVNLIESGACGAFVHGLE [INTS4],4.34 ± 0.39,4.85 ± 0.46
LWNGDKYAATTTPFTPLHIKVKPK [TRIM39],2.99 ± 0.27,3.28 ± 0.38
LGSWLVPFAYLTVLDLSKSLSAAL [POMT2],3.19 ± 0.56,3.34 ± 0.37
FKNSLLQKELKKAQMAKAAAEERA [WEE1],4.37 ± 0.15,4.34 ± 0.087
NVVTIGLAFFPFLHRLFREKSLDQ [PHTF1],2.24 ± 0.32,2.3 ± 0.47
PSALFSKIRRGQFCIPEHISPKAR [TRIB1],2.81 ± 0.37,3.06 ± 0.47
DDGRLLEYDTVTREVKVLLDQLRF [APMAP],2.62 ± 0.2,3.05 ± 0.38
LPGPKGDDGKLGATGPMGMRGFKG [SCARA5],4.7 ± 0.46,4.48 ± 0.2
AGPGAPEPLAEGAAAEFSSLLRRI [SLC35F2],3.9 ± 0.32,3.77 ± 0.46
TARVIIPLLKDEGFAVKALWGRTQ [GFOD1],2.08 ± 0.32,2.27 ± 0.35
MERSPDVSPGPSRSFKEELLCAVC [TRIM35],3.47 ± 0.18,3.6 ± 0.25
SLIRKHAQTFIALCATDFKFAMYP [CCND2],3.01 ± 0.18,2.97 ± 0.51
LATLDPLALDREPPPHLLPEKHQV [WDR88],4.06 ± 0.22,4.24 ± 0.16
VKIESVKLDFKEKAQAKVGSLDNA [MAP2],3.5 ± 0.24,3.52 ± 0.24
NYVAKNFAQALGCVLYACFILGRL [SOAT2],3.46 ± 0.38,2.85 ± 0.38
EEPELVFTLGDCDVIQALDLSVPL [FKBP8],3.66 ± 0.28,3.48 ± 0.41
VLREDQIPRGFPTIDMGPQLKVVE [PTPRD],3.898 ± 0.018,3.34 ± 1.1
EKAVANFDRTEWVQIRRLEAAGES [ZC2HC1C],4.49 ± 0.12,4.48 ± 0.26
VQAIFSGDPEEIRMLIHKTEDVNT [ANKRD44],3.76 ± 0.11,3.58 ± 0.11
FFHLSALKGYLYAVGGRNAAGELP [KLHL13],2.56 ± 0.62,2.27 ± 0.26
GADCGIQWWNAVFIMLLIGIVLPV [LYSMD4],2.88 ± 0.1,3.03 ± 0.45
FQSRLPYQYLHYALFKANRLEKAV [P3H4],2.37 ± 0.53,2.31 ± 0.56
IAVRKSRDKAKMRNLETQHKVLEL [CEBPB],3.14 ± 0.36,3.54 ± 0.12

Sequence,protein stability index (treatment: DMSO),"protein stability index (treatment: MLN4924 1 uM, 8 h)"
FLANLHITALLNVSRRTSEACMTH [DUSP5],3.13 ± 0.42,3.48 ± 0.7
NMLKNIELFDKLSLRFNGRVLFIK [KCTD10],2.68 ± 0.48,2.43 ± 0.35
KSLDNMPNDEHWKALSRKSTSFRV [FBXO33],3.4 ± 0.11,3.56 ± 0.21
WIQFNHPYTEKPRLWHTACASDEG [KLHDC2],2.28 ± 0.31,2.4 ± 0.13
HRGPSGHTEASAQRSHMGKLKEPQ,5.1 ± 0.38,4.87 ± 0.5
IIRLVRVFRIFKLSRHSKGLQILG [KCNA4],2.25 ± 0.53,2.3 ± 0.4
IESERALISQCGKPVVNVSYRPAY [DUSP5],2.6 ± 0.5,2.82 ± 0.13
KQPRKKRGRYRQYNSEILEEAISV [LCOR],3.92 ± 0.16,3.98 ± 0.13
SFQNMNSKRKAETWKKNRRQLAYS [STK38L],3.23 ± 0.33,3.33 ± 0.22
GLQAPPPDDVDYATNPHVKPPYSY [FOXJ1],4.42 ± 0.29,4.46 ± 0.19
EVVTPDNMCMGRTSRGKLGGQDSF [ETS1],3.71 ± 0.16,3.87 ± 0.2
GSRYDARRGVSDWDLRMKLHDRGA [DNAAF3],3.61 ± 0.23,3.66 ± 0.42
QSFISWTGDGWEFKLADPDEVARR [ETS2],3.58 ± 0.1,3.76 ± 0.19
TSEESRPRLSQLSVTDVTTSSLRL [TNXB],4.18 ± 0.29,4.24 ± 0.26
DYSFLSLGVYSALREIAFTRQLHE [ATE1],2.99 ± 1.3,2.68 ± 0.94
SRKPSLKGNREDSARMSAGLPGPE [PLEKHN1],4.85 ± 0.35,4.87 ± 0.2
ASVATWAIFVHRVGQPSIGGKLSP [CTBP1-DT],2.65 ± 0.9,2.33 ± 0.33
AQSRLEDPGADSEKSTVVEGGEVR [DLX1],5.42 ± 0.28,5.45 ± 0.37
KGSFGKVCIVQKNDTKKMYAMKYM [STK32A],2.49 ± 0.41,2.41 ± 0.23
CSSPSVVASLPLDQSDEGSSSQKE [MAGEA10],5.36 ± 0.74,5.49 ± 0.1
